The results in this text go back to article PMC6693562 (Cell Reports, 2019).

This data set concerns the molecule itself. Briefly: SEC-RALS.

Where a chain is given by its changes, count along the chain named. Names may count otherwise.

B1: MBP-OD^WT (human 53BP1 oligomerization domain, residues 1233-1288, fused to N-terminal maltose-binding protein) (domain or fragment, UniProt Q12888 1233-1288, looked up)
chain: GHVLHRHMRTIREVRTLVTRVITDVYYVDGTEVERKVTEETEEPIVECQECETEVS
Turning to B1, the “stoichiometry N” value was 4.

B2: MBP-OD with mutation of D1256 (D1256A) (domain or fragment, human, UniProt Q12888 1233-1288, looked up)
chain: B1 chain with D24A
As to B2, the “stoichiometry N” value amounted to 2.
